Patent JP2008515970A

Molecular target: ヒトVEGF (human) (UniProt P15692)
Experiment: cell-based or functional assay

UniProt P15692, sequence (P15692 other isoform, or with tags, fused parts or gaps limits assumed): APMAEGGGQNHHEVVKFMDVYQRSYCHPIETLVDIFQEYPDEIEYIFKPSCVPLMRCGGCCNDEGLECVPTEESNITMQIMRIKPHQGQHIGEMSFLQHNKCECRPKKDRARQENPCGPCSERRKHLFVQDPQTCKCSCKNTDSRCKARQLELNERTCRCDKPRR

EC50 (inhibition of VEGF-dependent HUVE cell proliferation, VEGF 10 ng/ml): 15 ng/mL
Substance: VEGFR1−Fc−IL−1ra (Fc fusion)
